Common to all, as to assay: EMSA
Data set [1] addresses T1, rDDX1 (WT) (human, UniProt Q92499 1-728).
T1 sequence: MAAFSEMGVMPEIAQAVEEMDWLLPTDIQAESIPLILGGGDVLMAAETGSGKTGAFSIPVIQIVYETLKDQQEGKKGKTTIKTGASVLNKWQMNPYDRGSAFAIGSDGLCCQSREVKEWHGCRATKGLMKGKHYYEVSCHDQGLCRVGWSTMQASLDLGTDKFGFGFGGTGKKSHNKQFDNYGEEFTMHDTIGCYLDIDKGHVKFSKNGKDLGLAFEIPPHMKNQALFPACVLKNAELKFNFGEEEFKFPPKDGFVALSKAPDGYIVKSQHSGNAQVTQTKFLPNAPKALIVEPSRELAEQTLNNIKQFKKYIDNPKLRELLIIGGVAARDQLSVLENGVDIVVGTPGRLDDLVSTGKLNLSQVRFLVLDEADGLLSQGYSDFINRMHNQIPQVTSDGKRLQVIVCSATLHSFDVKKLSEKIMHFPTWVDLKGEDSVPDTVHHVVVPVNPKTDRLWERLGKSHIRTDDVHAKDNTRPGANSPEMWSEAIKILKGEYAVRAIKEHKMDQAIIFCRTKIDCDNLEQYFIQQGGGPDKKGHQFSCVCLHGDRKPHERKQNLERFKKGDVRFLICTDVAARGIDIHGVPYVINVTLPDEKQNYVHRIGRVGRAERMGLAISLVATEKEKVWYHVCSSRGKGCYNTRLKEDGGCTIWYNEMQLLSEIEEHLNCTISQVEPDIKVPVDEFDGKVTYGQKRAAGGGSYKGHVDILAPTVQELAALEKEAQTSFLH

In data set [2] the target is T2, rDDX1-K52A (human, UniProt Q92499 1-728, K52A).
T2 sequence: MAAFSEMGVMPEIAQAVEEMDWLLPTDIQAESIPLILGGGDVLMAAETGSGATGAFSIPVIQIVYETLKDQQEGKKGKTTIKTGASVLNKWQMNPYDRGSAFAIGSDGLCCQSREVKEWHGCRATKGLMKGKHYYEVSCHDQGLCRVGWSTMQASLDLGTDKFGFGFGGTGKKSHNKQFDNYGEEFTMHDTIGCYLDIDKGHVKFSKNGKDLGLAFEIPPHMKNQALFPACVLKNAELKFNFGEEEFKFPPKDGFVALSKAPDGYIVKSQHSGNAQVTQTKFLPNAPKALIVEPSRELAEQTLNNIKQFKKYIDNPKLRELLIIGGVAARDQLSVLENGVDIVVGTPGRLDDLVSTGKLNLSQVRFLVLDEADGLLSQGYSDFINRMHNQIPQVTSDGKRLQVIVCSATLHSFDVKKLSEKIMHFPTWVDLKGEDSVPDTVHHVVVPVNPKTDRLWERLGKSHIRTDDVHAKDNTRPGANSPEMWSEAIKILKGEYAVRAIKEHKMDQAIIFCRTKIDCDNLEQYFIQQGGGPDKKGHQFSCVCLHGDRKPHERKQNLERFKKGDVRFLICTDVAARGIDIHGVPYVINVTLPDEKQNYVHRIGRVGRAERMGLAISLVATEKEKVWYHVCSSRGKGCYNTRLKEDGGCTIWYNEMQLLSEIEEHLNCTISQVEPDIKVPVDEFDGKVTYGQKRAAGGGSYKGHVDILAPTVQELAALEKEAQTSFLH

Data set [3] has as its target T1, rDDX1 (WT). This is another data set of the same source.
Data set [4] concerns the target T2, rDDX1-K52A. This is another data set of the same source.

Where two headings read alike, the source gives them in different places.

Consider ATCGGAATGTATGAGAATAGAAGAGATAATGAATAATAGAA (ssDNA) [Single-stranded DNA], for which the binding result with rDDX1 (WT) [1] and in the data set with rDDX1-K52A [2] was “no binding” in each case.

On to GAGCUGCGCUGAGCUGCGCUGAGCUGCGCUGAGCUGCGCU (ssRNA) [Sμ4Gmut RNA 32P], for which, in the data set with rDDX1 (WT) [3], the binding result is given as “no binding”.

With GAGCUGGGGUGAGCUGGGGUGAGCUGGGGUGAGCUGGGGU (structured_RNA) [Sμ4G RNA 32P], the binding result with rDDX1 (WT) [3] and in the data set with rDDX1-K52A [4] was “binds” throughout.

The record behind these values is article PMC5971202.
